The record followed here is paper PMC7268548, “A missense variant in specificity protein 6 (SP6) is associated with amelogenesis imperfecta”.

For one data set, the target named is T1, SP6 wild type (Homo sapiens, UniProt Q3SY56 1-376).
T1 sequence: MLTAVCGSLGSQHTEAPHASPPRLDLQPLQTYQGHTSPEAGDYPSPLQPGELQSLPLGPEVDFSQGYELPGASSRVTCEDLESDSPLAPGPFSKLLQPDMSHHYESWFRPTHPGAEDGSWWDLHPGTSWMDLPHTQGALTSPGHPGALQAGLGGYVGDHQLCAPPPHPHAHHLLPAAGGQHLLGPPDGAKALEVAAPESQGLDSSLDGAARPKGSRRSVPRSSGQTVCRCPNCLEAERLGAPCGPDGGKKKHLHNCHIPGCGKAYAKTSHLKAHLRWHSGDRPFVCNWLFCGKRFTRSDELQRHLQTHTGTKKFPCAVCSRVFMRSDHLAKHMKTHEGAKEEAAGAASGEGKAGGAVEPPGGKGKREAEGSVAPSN
Kind of data set: SPR; up to 400 nM; data not shown; Biacore 3000 SPR, 10 mM HEPES pH 7.5, 200 mM NaCl, 0.01% surfactant P-20, 25 C, 40 uL/min, protein 6.25-400 nM, DNA on SA chip. Conditions: protein: recombinant; tags: N-terminal His-GST; label: 5'-biotin on forward strand; blunt. A general note: In SPR one partner is held on a chip, and binding of the other changes the refractive index at the surface.

In another data set the target is T2, SP6 p.(Ala273Lys) (Homo sapiens, UniProt Q3SY56 1-376, A273K).
T2 sequence: T1 sequence with A273K
The data set is described as above. Conditions: protein: recombinant; tags: N-terminal His-GST; label: 5'-biotin on forward strand; blunt.

Positions count from the first letter of the chain named.

B1: NKX2-1 promoter probe (SP3 site control) (dsDNA)
DNA 1: GGGATCCGGGACAGCCTCCGGGAGGCAGTCGATCCCCTAC
DNA 2: GTAGGGGATCGACTGCCTCCCGGAGGCTGTCCCGGATCCC
In the case of B1, the binding result with SP6 wild type and in the data set with SP6 p.(Ala273Lys) was “no binding” each time.
